How the values were obtained:
[1] = Phage titer assay of phage binding to hair; parameters: species or system human; conditions: phage-displayed peptide; six gray hair strands; relative to HP2-TonB-Gray3 = 100
Method: (§1) Phage particles recovered from panning (Example 2) were used to infect E. coli 10GF′ and transformants were purified by colony isolation. Purified phagemid clones were infected with helper phage VCSM13 and phage particles were isolated. Those purified phage clones were assayed for binding to hair by two methods.
Six gray hair strands (1.5 cm long) were blocked with BSA (1 mg/mL) at room temperature (˜21° C.) for 30 min in 1.5 mL microfuge tubes, then washed twice with tris buffered saline (TBS). Phage particles were added in TBS plus 0.1% TWEEN®-20 and incubated at room temperature for 1 hour with gentle shaking. The hair was then washed 3 times with TBS plus 0.5% TWEEN®-20, and centrifuged briefly to remove excess liquid. E. coli 10GF′ (1 mL; OD600nm=0.5) was added for 15 min. Aliquots were plated on selective plates and phagemid-containing colonies were counted (Table 4)

[2] = Phage ELISA of phage binding to hair; parameters: species or system human; conditions: phage-displayed peptide, 1×10^11 pfu; A450; relative to HP2-TonB-Gray3 = 100
Method: as §1
Gray hair (200 strands, 1.5 cm long per bundle were blocked with BSA (1 mg/mL) at room temperature (˜21° C.) for 30 min in 1.5 mL microfuge tubes, then washed 3 times with TBS. Phage particles (1×10^11 pfu) were added in TBS plus 0.1% TWEEN®-20 and incubated at room temperature for 1 hr with gentle shaking. The hair was then washed 5 times with TBS plus 0.5% TWEEN®-20. Hair with bound phage was incubated with HRP/Anti-M13 monoclonal conjugate (GE Healthcare Bio-Science Corp, Piscataway, N.J.) at room temperature (˜21° C.) for 1 hr with gentle shaking, then washed 6 times with TBS plus 0.5% TWEEN®-20. IMMUNOPURE® TMB substrate kit (High sensitivity, Pierce, Rockford, Ill.; a division of Thermo Scientific) was used for colorimetric assay. After 15˜20 min development with gentle shaking, the reaction was stopped, and absorbance was determined at 450 nm. The Phage titer and ELISA data were reported relative to the activity observed for the hair-binding domain HP2-TonB-Gray3. (Table 4).

Row | Phage Titer (%) relative to the activity of HP2-TonB-Gray3 [1] | ELISA (%) relative to the activity of HP2-TonB-Gray3 [2] | Molecule
1 | 1% | 1% | Gray1-(KP)8-Gray1: hair-binding domain, SEQ ID NO: 77 (PSGMPAMHWIHPFAGPKPKPKPKPKPKPKPKPPAGMPAMHWIHPFAGS)
2 | 1% | 1% | Gray3-[(KP)6GG]2-KF11: hair-binding domain, SEQ ID NO: 83 (PSHDHKNQKETHQRHAAGPKPKPKPKPKPKPGGKPKPKPKPKPKPGGPANTSQLSTGS)
3 | 10% | 1% | HB1-(KGGGS)4-HP2: hair-binding domain with flexible linker, SEQ ID NO: 95 (PSTPPTNVLMLATKGPKGGGSKGGGSKGGGSKGGGSPAAQSQLPDKHSGLHERAPQRYGS)
4 | 5% | 1% | HB1-(KP)12-IB5A: hair-binding domain, SEQ ID NO: 96 (PSTPPTNVLMLATKGPKPKPKPKPKPKPKPKPKPKPKPKPPATPPELLHGAPRSGS)
5 | 330% | 130% | HP2-(EEAAKK)2-MEA4: hair-binding domain, SEQ ID NO: 76 (PSAQSQLPDKHSGLHERAPQRYGPEEAAKKEEAAKKPAHINKTNPHQGNHHSEKTQRQGS)
6 | 1% | 1% | KF11-[(KP)6GG]2-KF11: hair-binding domain, SEQ ID NO: 101 (PSNTSQLSTGPKPKPKPKPKPKPGGKPKPKPKPKPKPGGPANTSQLSTGS)
7 | 1% | 1% | Gray3-TonB-HP1: hair-binding domain, SEQ ID NO: 98 (peptide) PSHDHKNQKETHQRHAAGPEPEPEPEPIPEPPKEAPVVIEKPKPKPKPKPKPPAGSCVDTHKADSCVANNGPATGS
8 | 1% | 1% | Gray5-[(KP)6GG]2-HP2: hair-binding domain, SEQ ID NO: 99 (peptide) PSTAEIQSSKNPNPHPQRSWTNGPKPKPKPKPKPKPGGKPKPKPKPKPKPGGPAAQSQLPDKHSGLHERAPQRYGS
9 | 1% | 1% | MEA4-[(KP)6GG]2-MEA4: hair-binding domain, SEQ ID NO: 102 (peptide) PSHINKTNPHQGNHHSEKTQRQGPKPKPKPKPKPKPGGKPKPKPKPKPKPGGPAHINKTNPHQGNHHSEKTQRQGS
10 | 10% | 60% | Gray5-(EAAAKLL)3-Gray3: hair-binding domain, SEQ ID NO: 92 (peptide) PSTAEIQSSKNPNPHPQRSWTNGPEAAAKLLEAAAKLLEAAAKLLPAHDHKNQKETHQRHAAGS
11 | 100% | 100% | HP2-TonB-Gray3: hair-binding domain, SEQ ID NO: 85, also found in peptide HC353 (peptide) PSAQSQLPDKHSGLHERAPQRYGPEPEPEPEPIPEPPKEAPVVIEKPKPKPKPKPKPPAHDHKNQKETHQRHAAGS
12 | 1% | 1% | HP2-TonB-MEA4: hair-binding domain, SEQ ID NO: 89 (peptide) PSAQSQLPDKHSGLHERAPQRYGPEPEPEPEPIPEPPKEAPVVIEKPKPKPKPKPKPPAHINKTNPHQGNHHSEKTQRQGS
13 | 50% | 100% | HP2-TonB-IB5A: hair-binding domain, SEQ ID NO: 88 (peptide) PSAQSQLPDKHSGLHERAPQRYGPEPEPEPEPIPEPPKEAPVVIEKPKPKPKPKPKPPATPPELLHGAPRSGS
14 | 30% | 1% | HP2-TonB-HB1: hair-binding domain, SEQ ID NO: 93 (peptide) PSAQSQLPDKHSGLHERAPQRYGPEPEPEPEPIPEPPKEAPVVIEKPKPKPKPKPKPPATPPTNVLMLATKGS
15 | 1% | 1% | KF11-[(KP)6GG]2-Gray4A: hair-binding domain, SEQ ID NO: 97 (peptide) PSNTSQLSTGPKPKPKPKPKPKPGGKPKPKPKPKPKPGGPAHNHMQERYTAPQHSPSVNGLGS
16 | 25% | 115% | Gray5-(EAAAKLL)3-MEA4: hair-binding domain, SEQ ID NO: 90 (peptide) PSTAEIQSSKNPNPHPQRSWTNGPEAAAKLLEAAAKLLEAAAKLLPAHINKTNPHQGNHHSEKTQRQGS
17 | 50% | 80% | HP2-(EEAAKK)5-Gray4A: hair-binding domain, SEQ ID NO: 74 (peptide) PSAQSQLPDKHSGLHERAPQRYGPEEAAKKEEAAKKEEAAKKEEAAKKEEAAKKPAHNHMQERYTAPQHSPSVNGLGS
18 | 1% | 1% | Gray5-[(KP)6GG]2-Gray4A: hair-binding domain, SEQ ID NO: 78 (peptide) PSTAEIQSSKNPNPHPQRSWTNGPKPKPKPKPKPKPGGKPKPKPKPKPKPGGPAHNHMQERYTAPQHSPSVNGLGS
19 | 80% | 170% | HP2-(EEAAKK)4-MEA4: hair-binding domain, SEQ ID NO: 75 (peptide) PSAQSQLPDKHSGLHERAPQRYGPEEAAKKEEAAKKEEAAKKEEAAKKPAHINKTNPHQGNHHSEKTQRQGS
20 | 55% | 55% | HP2-TonB-HP2: hair-binding domain, SEQ ID NO: 91 (peptide) PSAQSQLPDKHSGLHERAPQRYGPEPEPEPEPIPEPPKEAPVVIEKPKPKPKPKPKPPAAQSQLPDKHSGLHERAPQRYGS
21 | 10% | 20% | MEA4-(EAAAKLL)3-IB5A: hair-binding domain, SEQ ID NO: 94 (peptide) PSHINKTNPHQGNHHSEKTQRQGPEAAAKLLEAAAKLLEAAAKLLPATPPELLHGAPRSGS
22 | 1% | 1% | Gray3-(EAAAKLL)4-HB1: hair-binding domain, SEQ ID NO: 100 (peptide) PSHDHKNQKETHQRHAAGPEAAAKLLEAAAKLLEAAAKLLEAAAKLLPATPPTNVLMLATKGS
23 | 40% | 8% | HP2-(EEAAKK)4-Gray1: hair-binding domain, SEQ ID NO: 73 (peptide) PSAQSQLPDKHSGLHERAPQRYGPEEAAKKEEAAKKEEAAKKEEAAKKPAGMPAMHWIHPFAGS

Reference: US9278138B2, “Peptide linkers for effective multivalent peptide binding” (E. I. DU PONT DE NEMOURS AND COMPANY, priority 2008, dated 2016)
